Measured values: paper PMC5321536 (Angewandte Chemie (International ed. in English), 2017)

Molecular target: the molecule itself
Assay: solution-state diffusion-ordered NMR spectroscopy

B1: isolated cytoplasmic (soluble) C-terminal domain of CzcD (CzcD_(209-316)) (domain or fragment, Cupriavidus metallidurans CH34, UniProt P13512 209-316, looked up)
chain: EGVPDDVDLAEVEKQILATPGVKSFHDLHIWALTSGKASLTVHVVNDTAVNPEMEVLPELKQMLADKFDITHVTIQFELAPCEQADAAQHFNASPALVGSKSLAAGGN
stoichiometry N: 2
